# Where a chain is given by its changes, count along the chain named.
# B1: h#24A3-H2/L3 (antibody, human IgG2, kappa, V domains shown)
# VH: QVQLVQSGAEVKKPGASVKVSCKASGYTFPRYDVSWVRQAPGQGLEWMGVIHPGSGGTGYNEKFKARVTITADTSTSTAYMELSSLRSEDTAVYYCARRGLNSGYWFFDFWGQGTLVTVSS
# VL: DIVMTQSPDSLAVSLGERATINCKASQNVGSNVDWYQQKPGQSPKLLIYESTNRYTGVPDRFTGSGSGTDFTFTISSLQAEDVAVYYCMQSNFFPFTFGQGTKVEIKR
# B2: h#24A3-H2b/L1 (antibody, human IgG2, kappa, V domains shown)
# VH: B1 VH with S103K
# VL: B1 VL with S43P, T63S, F73L
# B3: h#24A3-H2b/L2b (antibody, human IgG2, kappa, V domains shown)
# VH: B1 VH with S103K
# VL: B1 VL with T63S, F73L
# B4: h#24A3-H2b/L3b (antibody, human IgG2, kappa, V domains shown)
# VH: B1 VH with S103K
# VL: B1 VL with F73L
# B5: h#24A3-H2c/L1 (antibody, human IgG2, kappa, V domains shown)
# VH: B1 VH with M48I, S103K
# VL: B1 VL with S43P, T63S, F73L
# B6: h#24A3-H2c/L2b (antibody, human IgG2, kappa, V domains shown)
# VH: B1 VH with M48I, S103K
# VL: B1 VL with T63S, F73L
# B7: h#24A3-H2c/L3b (antibody, human IgG2, kappa, V domains shown)
# VH: B1 VH with M48I, S103K
# VL: B1 VL with F73L
# B8: h#24A3-H2d/L1 (antibody, human IgG2, kappa, V domains shown)
# VH: B1 VH with V68A, S103K
# VL: B1 VL with S43P, T63S, F73L
# B9: h#24A3-H2d/L2b (antibody, human IgG2, kappa, V domains shown)
# VH: B1 VH with V68A, S103K
# VL: B1 VL with T63S, F73L
# B10: h#24A3-H2d/L3b (antibody, human IgG2, kappa, V domains shown)
# VH: B1 VH with V68A, S103K
# VL: B1 VL with F73L
# B11: h#24A3-H2e/L1 (antibody, human IgG2, kappa, V domains shown)
# VH: B1 VH with A72V, S103K
# VL: B1 VL with S43P, T63S, F73L
# B12: h#24A3-H2e/L2b (antibody, human IgG2, kappa, V domains shown)
# VH: B1 VH with A72V, S103K
# VL: B1 VL with T63S, F73L
# B13: h#24A3-H2e/L3b (antibody, human IgG2, kappa, V domains shown)
# VH: B1 VH with A72V, S103K
# VL: B1 VL with F73L
# B14: h#24A3-H2/L1 (antibody, human IgG2, kappa, V domains shown)
# VH: B1 VH
# VL: B1 VL with S43P, T63S, F73L
# B15: h#24A3-H2/L2 (antibody, human IgG2, kappa, V domains shown)
# VH: B1 VH
# VL: B1 VL with T63S
# B16: rat anti-human Siglec-15 monoclonal antibody #24A3 (antibody, rat IgG2a, V domains shown)
# VH: QVQLQQSGAELTKPGSSVKISCKTSGYTFPRYDVSWIKQRPGQALEWIGVIHPGSGGTGYNEKFKAKATLAVDTSSSTAFMQLSSLTPEDTAVYYCARRGLNSGYWFFDFWGPGTLVTVSS
# VL: DIVMTQSPTSMSISVGDRVTMNCKASQNVGSNVDWYQQKTGQSPKLLIYESTNRYTGVPDRFTGSGSGTDFTFTISNVQAEDLAVYYCMQSNFFPFTFGSGIKLEIKR
# B17: human chimeric antibody of the rat anti-human Siglec-15 monoclonal antibody #24A3 (antibody, human IgG2, V domains shown)
# VH: B16 VH
# VL: B16 VL
# Biological target: human Siglec-15 V-set domain (human) (UniProt Q6ZMC9)
# Assay: SPR (Biacore T200), antibody captured via anti-human IgG, antigen as analyte, same manner as 10-1
# Sequence of UniProt Q6ZMC9 (Q6ZMC9 39-165 limits assumed, form in doubt): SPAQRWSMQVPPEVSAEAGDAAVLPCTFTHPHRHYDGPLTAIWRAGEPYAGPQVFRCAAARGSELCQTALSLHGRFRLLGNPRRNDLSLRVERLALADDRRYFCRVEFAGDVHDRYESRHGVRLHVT
row,Binder,Kd [nM]
1,B1,0.027
2,B2,0.0098
3,B3,0.0085
4,B4,0.0077
5,B5,0.01
6,B6,0.013
7,B7,0.015
8,B8,0.0045
9,B9,0.01
10,B10,0.0075
11,B11,0.0069
12,B12,0.018
13,B13,0.016
14,B14,0.031
15,B15,0.028

# Biological target: human Siglec-15 V-set domain (human) (UniProt Q6ZMC9)
# Assay: SPR (Biacore T200), ratio of KD values, reference rat #32A1
row,Binder,fold affinity against #32A1 [fold]
1,B16,2

# Biological target: human Siglec-15 V-set domain (human) (UniProt Q6ZMC9)
# Assay: SPR (Biacore T200), antibody captured via immobilized anti-human IgG antibody, antigen as analyte, 1:1 model
row,Binder,Kd [nM]
1,B17,0.017

# Biological target: human Siglec-15 V-set domain (human) (UniProt Q6ZMC9)
# Assay: SPR (Biacore T200), antibody captured via immobilized anti-mouse IgG antibody, antigen as analyte, 1:1 model
row,Binder,Kd [nM]
1,B16,0.07

# — US20150125470A1
